Reference: US20130337528A1

Target: goat IgG (goat)
Assay: binding capacity used to set the particle load for goat serum; method not stated
Settings: scale: mg IgG per 5 g wet weight polymer particles

## PhaC-(GB1)3 polymer particles (PHB polymer particles displaying (GB1)3, from plasmid pET-14b PhaC-(GB1)3) (from UniProt P23608 1-589; P06654 228-282; P06654 228-282; P06654 228-282)
  IgG binding capacity: > 220
